The source of these data is article PMC8106883.

The target of the experiment is angiotensin-converting enzyme 2 (ACE2) on transfected HEK293T cells (human) (UniProt Q9BYF1).

Substance S1-hFc N282Q (Fc fusion) registered a fold binding relative to WT S1-Fc of 3 fold.
